Assays:
[1] = target: mouse anti-CEA monoclonal antibody 8019; experiment: RIA, labeled Ab2 (3H1) on 8019-coated plates, no inhibitor
[2] = target: mouse anti-CEA monoclonal antibody 8019; experiment: competition: Ab2 blocks binding of 8019 to CEA on MCF-7 cells
[3] = target: mouse anti-CEA monoclonal antibody 8019; experiment: competition RIA, labeled Ab2 (3H1) on 8019-coated plates, 250 ng unlabeled 3H1
[4] = target: mouse anti-CEA monoclonal antibody 8019; experiment: plate RIA, inhibition of radiolabeled 8019 binding to semipurified CEA, 25 ng 3H1
[5] = target: mouse anti-CEA monoclonal antibody 8019; experiment: competition RIA, labeled Ab2 (3H1) on 8019-coated plates with 0.125 µg unlabeled 3H1
[6] = target: mouse anti-CEA monoclonal antibody 8019; experiment: competition RIA, labeled Ab2 (3H1) bound to 8019-coated plates with 0.125 µg unlabeled 3H1

cpm Bound [1]: 12000 cpm
percent inhibition [2]: > 85%
percent inhibition [3]: > 90%
percent inhibition [4]: 100%
percent inhibition [5]: 97%
cpm Bound [6]: 439 cpm
B1: monoclonal anti-idiotype antibody 3H1 (antibody, V domains shown)
VH: EVQLQQSGPELVKPGASLKISCEASGYSLTAYTMNWVKQSHGKSLEWVGLINPFSGDTNYSQKFTGKATLTVDRSSSTAYMELLSLTSEDSAVYYCVITPVPYWYFDVWGAGTTVTVSS
VL: DIKMTQSPSSMYASLGERVTITCKASQDINGYLNWFQQEPGKSPKTLIYRANRLIDGVPSRFSGSGSGQVYSLTISSLEYEDMGTYYCLQFDEFPWMFGGGTKLEIK

Reference: patent publication US7090842
